Assay results taken from patent publication US20050164166A1 (US Dept. of Health and Human Services, published 2005).

B1: soluble scFv m6 (scFv, not shown: small tags and cut ends)
scFv: VLTQSPGTLSLSAGERATLSCRASQSVSSGSLAWYQQKPGQAPRLLIYGASTRATGIPDRFSGSGSGTDFTLTIGRLEPEDLAVYYCQQYGTSPYTFGQGTKLEIKRTGGGGSSGGASGGGGSVRLLEQSGAEVKKPGSSVQVSCKASGGTFSMYGVNWVRQAPGHGLEWMGGIIPIFGTSNYAQKFRGRVTFTADQATSTAYMELTNLRSDDTAVYYCARDFGPDWEDGDSYDGSGRGFFDFWGQGTLVTVSS
B2: Fab X5 (Fab, V domains shown)
VH: VQLLEQSGAEVKKPGSSVQVSCKASGGTFSMYGFNWVRQAPGHGLEWMGGIIPIFGTSNYAQKFRGRVTFTADQATSTAYMELTNLRSDDTAVYYCARDFGPDWEDGDSYDGSGRGFFDFWGQGTLVTVSS
VL: ELVLTQSPGTLSLSAGERATLSCRASQSVSSGSLAWYQQKPGQAPRLLIYGASTRATGIPDRFSGSGSGTDFTLTIGRLEPEDLAVYYCQQYGTSPYTFGQGTKLEIKR

What was measured:
Assay in all cases: cell-based or functional assay
Env UG037.8 (clade A) = Env UG037.8 (clade A) (HIV-1)
Env RW020.5 (clade A) = Env RW020.5 (clade A) (HIV-1)
Env US715.6 (clade B) = Env US715.6 (clade B) (HIV-1)
Env HT593.1 (clade B) = Env HT593.1 (clade B) (HIV-1)
Env US005.11 (clade B) = Env US005.11 (clade B) (HIV-1)
Env 89.6 (clade B) = Env 89.6 (clade B) (HIV-1, UniProt Q73372 32-853)
Env NL4-3 (clade B) = Env NL4-3 (clade B) (HIV-1)
Env BR025.9 (clade C) = Env BR025.9 (clade C) (HIV-1)
Env TH022.4 (clade EA) = Env TH022.4 (clade EA) (HIV-1)
Env BR019.4 (clade F/B) = Env BR019.4 (clade F/B) (HIV-1)
Env UG975.10 (clade G) = Env UG975.10 (clade G) (HIV-1)

Binder	% of fusion inhibition (cell-cell fusion assay, syncytia count, antibody at 50 ug/ml) (Env UG037.8 (clade A))	% of fusion inhibition (cell-cell fusion assay, syncytia count, antibody at 50 ug/ml) (Env RW020.5 (clade A))	% of fusion inhibition (cell-cell fusion assay, syncytia count, antibody at 50 ug/ml) (Env US715.6 (clade B))	% of fusion inhibition (cell-cell fusion assay, syncytia count, antibody at 50 ug/ml) (Env HT593.1 (clade B))	% of fusion inhibition (cell-cell fusion assay, syncytia count, antibody at 50 ug/ml) (Env US005.11 (clade B))	% of fusion inhibition (cell-cell fusion assay, syncytia count, antibody at 50 ug/ml) (Env 89.6 (clade B))	% of fusion inhibition (cell-cell fusion assay, syncytia count, antibody at 50 ug/ml) (Env NL4-3 (clade B))	% of fusion inhibition (cell-cell fusion assay, syncytia count, antibody at 50 ug/ml) (Env BR025.9 (clade C))	% of fusion inhibition (cell-cell fusion assay, syncytia count, antibody at 50 ug/ml) (Env TH022.4 (clade EA))	% of fusion inhibition (cell-cell fusion assay, syncytia count, antibody at 50 ug/ml) (Env BR019.4 (clade F/B))	% of fusion inhibition (cell-cell fusion assay, syncytia count, antibody at 50 ug/ml) (Env UG975.10 (clade G))
B1	66%	56%	27%	50%	83%	98%	100%	57%	72%	37%	48%
B2	34%	45%	56%	27%	72%	93%	83%	71%	43%	37%	19%
